Test: yeast display, Sf9 membrane polyspecificity reagent, FACS + sequencing; frameworks hold sequencing errors
Procedure, shortened: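 Nanobodies from a synthetic yeast display library (Saccharomyces cerevisiae BJ5465), induced 36–48 hours with galactose, were stained 1 hour at 4 °C with 10% biotinylated, detergent-solubilized Sf9 membrane reagent, enriched on streptavidin microbeads, then FACS-sorted. Anti-HA (expression) and streptavidin (reagent binding) fluorescence set low and high (top ~1%) gates. Polyreactivity labels come from the gate of origin. Genes were colony-PCR amplified, MiSeq 2 × 250 sequenced and filtered by CDR length.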

Row | Sequence | polyreactivity (PSR sort gate)
1 | QVQLVESGGGLVQAGGSLRLSCAASGSTFGQYAMGWYRQAPGKERELVATISSGSTYYADSVKGRFTISRDNAKNTVYLQMNSLKPEDTAVYYCAATRRWYKSKKTFYYWGQGTQVTVSS | high polyreactivity
2 | QVQLVESGGGLVQAGGSLRLSCAASGRTFFYYSMGWYRQAPGKERELVATITKRGGSTYYADSVKGRFTISRDNAKNTVYLQMNSLKPEDTAVYYCNATLGRTTAVFKYYWGQGTQVTVSS | high polyreactivity
3 | QVQLVESGGGLVQAGGSLRLSCAASGRIFLLNAMGWSRQAPGKERELVAAIDIIGGSTYYADSVKGRFTISRDNAKNTVYLQMNSLKPEDTAVFYCAAEADFWRFVEYDYWGQGTQVTVSS | low polyreactivity
4 | QVQLVESGGGLVQAGGSLRLSCAASGFILDNYAMGWYRQAPGKERELVAAISGSGGSTYYADSVKGRFTISRDNAKNTVYLQMNSLKPEDTAVYYCAAYSIHYGYDAYDYWGQGTQVTVSS | high polyreactivity
5 | QVQLVESGGGLVQAGGRLRLSCAASGRTFYSYTMGWYRPAPGKERELVAAIRYSGDRTYYADSVKGRFTISRDNAKNTVDLQMNSLKPEDTAVYYCGKAAPYPGSFYYWGQGTQVTVSS | low polyreactivity
6 | QVQLVESGGGLVQAGGSLRLSCAACGRTFRFYAMGWYRKAPGKERELVAAISKSGGSTYYADSVKGRFTISRDNEKNTVYLQMNSLKPEDTAVYYCAAQTYLYDYKYWGQGTQVTVSS | high polyreactivity
7 | QVQLVESGGGLVQAGGSLRLSCAASGSILLDYAMGWYRQAPGKERELVAVISRRGTSTYYADSVKGRFTISRDNAKNTVYLQMNSLKPEDTAVYYCATSTWSFYRRYDYWGQGTQVTVSS | high polyreactivity
8 | QVQLVESGGGLVQAGGSLRLSCAASGRTFSYYAMGWYRQAPGKERELVAAISRSGVTTHYADSVKGRFTISRDNAKNTVYLQMNSLKTEDTAVYYCNKVYYYVGTLDYWGQGTQVTVSS | high polyreactivity
9 | QVQLVESGGGLVQAGGSLRLSCAASGRIFGVYAMGWYRQAPGKERELVAAISEGGGSTNYADSVKGRFTISRDNAKNTVYLQMNSLKPEDTAGYYCAATYRTGVRRYYSWGQGTQVTVSS | low polyreactivity
10 | QVQLVESGGGLVQAGGRLRLSCAASGRIFYNYAMGWYRQAPGKERELVAAISGSGGSTYYADSVKGRFTISRDNAKNTVYLQMNCLKPDDTAVYYCSTSGPQYYSRNFDYWGQGTQVTVSS | low polyreactivity
11 | QVQLVESGGGLVQAGGSLRLSCAASGSIFVPYAMGWYIQAPGKERELVAAISSRGGSTYYADSVKGRFTISRDNAKNTVYLQMNSLKPEDTAVYYCNTDISRNYYWALYGYWGQGTQVTVSS | low polyreactivity
12 | QVQLVESGGGVVQAGGSLRLSCAASGSTFLVNAMGWYRQAPGKERELVAAISRSTGSTYYADSVKGRFTISRDNAKNSVYLQMNSLKPEDTAVYYCAVYRHGYGYNYWGQGTQVTVSS | high polyreactivity
13 | QVQLVESGGGLVQAGGSLRLSCAASGRIFRYYAMGWYIQAPGKERELVAAISKSGGGTFYADSVKGRFTISRDNAKNTVYLQMNSLKPEDTEVYYCAARDKGLGKHDYWGQGTQVTVSS | low polyreactivity
14 | QVQLVESGGGLVQAGGSLRLSCAASGFTFWTYAMGWYRQAPGKERELVATISKRGGSTYYADSVKGRFTISRDNAMNTVYLQMNSLKPEVTAVYYCNRPSYGKEMDYWGQGTQVTVSS | high polyreactivity
15 | QVQLVESGGGLVQSGGSLRLTCAASGRTFPYYAMGWYRQAPGKERELVAAISRRGGSTYYADSVKGRFTISRDNAMNTVYLQMNSLKPEDTAVYYCAAAGGVSGGEYDYWGQGTQVTVSS | high polyreactivity
16 | QVQLVESAGGLVQAGGSLRLSCAASGSTFIRYAMGWYRQAPGKERELVAAITRGGSTYYADSVKGRFTISRDNAKYTVYLQMNSLKPEDTAVYYCAAGYYGNGVFEYDYWGQGTQVTVSS | low polyreactivity
17 | QVQLVESGGGLVQAGGSLRLSCAASMGLYRQAPGKERDLVATITSDAGTNYADSVKGRFTISRDNAKNTVYLQRNSLKPEDTAVYYCNADGYDSSDFGEGDYWGQVTQVTVSS | low polyreactivity
18 | QVQLVESGGGLVQAGGSLRLSCAASGRIFRQNAMGWYRQAPGKERELVAAIDWNGTSTYADSVKGRFTISRDNAKNTVYLQMNSLKPEDTAVYYCNASESKPTFEYDYWGQGTQVTVSS | low polyreactivity
19 | QVQLVETGGGLVQAGGSLRLSCDASVSTFRYYTMGWYRQAPGKERELVASIRRGGSTNYADSVKGRFTISRDNAKNTVYLQMNSLKPEDTAVYYCNAKKGVYNGDAAKYDYWGPGTQVTVSS | high polyreactivity
20 | QVQLVESGGGLFQAGGSLRLSCAASGRIFRGYAMGWYRQAPGKERELVAAIDRVGRTKYADSVKGRFTISRDNAKNTVYLHMNSLKPEDTAVYYCAAKASRVDWGYGYWGQGTQVTVSA | high polyreactivity
21 | QVQLVESGGGLVQAGGSLRLSCAASGSIFRYYAMGWYRQAPGKERELVASISSGAGSTYYADSVKGRFTISRDNAKNTVYLQMNSLKPEDTAVYYCAARPGYSAFYYWGQGTQVTVSS | high polyreactivity
22 | QVQLVESAGGLVQAGGSLRLSCAASGSTFGENAMGWYRQAPGKERELVAAISDSGGDTYYADSVKGRFTISRDNAKYTVYLQMNSLKPEDTAVYYCAADRYGYWYAYYSWGQGTLVTVSS | low polyreactivity

Row | Sequence | polyreactivity (PSR sort gate)
23 | QVKLVESGGGLVQAGGSLRLSCAASGSIFLAYAMGWYRQAPGKEREFVAAISCSDGSTYYADSVKGRFTISRDNAKNTVYLQMNSLKPDDTAVFYCYKGASADDYDYCGQGTQVTVSS | low polyreactivity
24 | QVQLVESGGGLVQAGGSLRLSCAASGRTFRPNAMRWYRQAPGKERELVASITRRGGTTYYADSVKGRFTISRDNAKNTVYLQMNSLKPEDTAVYYCNAPPGYSSTRNGYWGQGTQVTVSS | high polyreactivity
25 | QVQLVESGGGLVQAGGSLRLSCAASGRTFKKYAMGWYRQAPGKERELVSAITGSVGSTYYADSVKGRFTISRDNAKNTVYLQMNSLIPEDTAVYYCAAYAYGVWHSQDGGNYWGQGTQVTVSS | low polyreactivity
26 | QVQLVESGGGLVQAGGSLRLSCAASGRIFYFYAMGWYRQAPGKEMELVAAISTSGGSTYYADSVKGRFTISRDNAKNTVYLQMNSLKPEDTAVYYCNADGYQSRWYYYNYDYWGQGTQVTVSS | low polyreactivity
27 | QVQLVESGGGLVQAGGSLRLSCAASGSIFSYYAMGWYRQAPGKERELVAGISISTGSTYYADSVKGRFTISRDNAKNTVYLQMNSLKPEDNAVYYCAAAQDDGYSQDIYYQLSAYDYWGQGTQVTVSS | low polyreactivity
28 | QVQLVESGGGLVQAGGSLRLSCAASGSTFRPYAMGWYRQAPGKERELVAAITSTDVNTYYADSVKGRFTISRDNAKNTVYLQMNSLKPEDTAVYYCAAVYLGYYGVSDMEYWGQGTQVTVSS | high polyreactivity
29 | QVQLVESGRGLVQAGGSLRLSCAASGRIFYVYAMGWSRTAPGKERELVAAITQSGGRTYYADSVKGRFTISRDNAKNTVYLQMNSLKPEDTAVYYCAATWLGSRNLVHITLYYWGQGTQVTVSS | low polyreactivity
30 | QVQLEDSGGGLVQAGGSLRLSCAASGLTFYGYTMGWYRQAPGKERELVAAISWSGGNTYYADSVKGRFTISRDNAKNTVYLQMNSLKPEDTAVYYCAAEHWTYDWVDYWGQGTQVTVSS | low polyreactivity
31 | QVQLVESGGGLVQAGGSLRLSCAASGSTFRNNGMGWYRQAPGKERELVAAITKSGGSTYYADSVKGRFTISRDNAKNTVYLQMNSLKPEDTAVYYCAARFWYNTPRVGWRRYNYWGQGTQVTVSS | high polyreactivity
32 | QVQLVESGGGLVQAGGSLRLSCAASGISFERNGMGWYRQATGKERELVAAIRSGGSTYYADSVKGRFTISRDNAKNRVYVQMHSLKPEETAVYYCAAVTQGGYTDLGDYWGQGTQVTVSS | low polyreactivity
33 | QVQLVESGGGLVQAGGSLRLSCAASGRTFFDYAMGWYRQAPGKERELVAAINWSGGRTYYADSVKGRFTISRDNAKNTVYLQMNTLKPEDTAVYYCAKPFSSNSWSHGYWGQGTQVTVSS | low polyreactivity
34 | QVQLVESGGGLVQAGGSLRLSCAASGSTFRRYVMGWYRQAPGKERELVAAIRWNVGSTYYADSVKGRFTISRDNAKNTVYLQMNSLKPEDTAVYYCAAYEYVRGGYGYWGQGTQVTVSS | high polyreactivity
35 | QVQLVESGGGLVQAGGSLRLSCAASGSIFGVYDMGWYRQAPGKEREVVAVINSNGGSTYYADSVKGRFTISRDNAKNTVYLQMNSLKPEDTAVYYCAADYQSYVYIGYGYWGQGTQVTVSS | low polyreactivity
36 | QVQRVESGGGLVQAGGRLLLSCAASGSIFPPNAMGWYREAPGKERELVAAISGSGRTYYADSVKGRFTISRDNAKNTVYLQMNSLKPEDTAVYYCAARQQRRPTTRDFGFWGQGTQVTVSS | high polyreactivity
37 | QVQLVESGGVLVQAGGSLRLSCAASGRIFWLNAMGWYRQAPGKEREFVASITYGSDSTYYADSVKGRFTISRDNAKNTVYLQMNSRTPEDTAVYYCNREGWHYGPYGYWGQGTQVTVSS | low polyreactivity
38 | QVQLVESGGGLVQAGGSLRLSCAASGNIFPPYAMGWYRQAPGKERELVAAITRSGASTYYADSVKGRFTISRDNAKNTVYLQMNSLKPEDTAVYYCAVGVPGGYWKYYYWGQGTQVTVSS | high polyreactivity
39 | QVQLVESGGGLVQAGCSLRLSCAASGRTDFYTMGWYRQAPGKEMELVAAITSTGRTYYADSVKGRFTISRDNAKNTVYLKMNSLKPEDTAVYFCAAVWRYKGLLLPSYYYWGQGTQVTVSS | high polyreactivity
40 | QVQLVESGGGLVEAGGSLSLSCAASGSTFYKYSMGLYRQAPGKESELVAAITGSGVSTYYADSVKGRFTMSRDNAKNTVYLQMNSLKPDDTAVYYCNAESRSRPYTSSYDYWGQGTQVTVSS | high polyreactivity
41 | QVQLVESGGGIVQAGGSLRLSCAASGRTFWGYAMGWYRQAPGKERELVASISGRGGSTYYADSVKERFTISRDTAKNTVYLQINSLQPEDTAVYYCAATYFSVKWYYYWGEGTQVTVSS | high polyreactivity
42 | QVQLVESGGGLVQAGGSLRLSCAASGNAMGWYRQAPGKERELVAAITYGGTTTYYADTVKGRFTISRDNAKNTVYLQMTSQKPEDTAVYYCAADNVSVATPLRYDYWGQGTQVTVSS | low polyreactivity
43 | QVQLVESGGGLVQAGGSLRLSCAASGFTFEKNAMGWYRQAPGKERELVAAISRGGSTYADSVKGRFTISRDNAKNTVYLQMNSLKPEDTAVYYCAGDTVYIFSSAINGEFGYWGQGTQVTVSS | low polyreactivity

— the nanobody polyreactivity screen of Harvey et al. (2022)
